Key:
[1] = target: wild-type Shaker K+ channel with N-type inactivation removed (UniProt P08510); assay: […]
[2] = target: 3/4V478W mutant Shaker concatemer channel; assay: […]

Row | Molecule | Kd [1] | Kd [2]
1 | wild-type AgTx2 (from UniProt P46111 1-38) (peptide) | 2.5 nM | 
2 | GVPINVSCTGSPQCIKPCKDAGMRFGKCMNRKCHCTPK [wild-type AgTx2] |  | 9.2 nM

From PMC5652298 (Nature structural & molecular biology, 2017)
